PMC3040262 (Biochemistry, 2011)

Target: PP1α_(7-330), His6-tag removed by TEV protease (UniProt P62136 7-330)
Assay: SEC

Sequence of PP1α_(7-330), His6-tag removed by TEV protease (P62136 7-330): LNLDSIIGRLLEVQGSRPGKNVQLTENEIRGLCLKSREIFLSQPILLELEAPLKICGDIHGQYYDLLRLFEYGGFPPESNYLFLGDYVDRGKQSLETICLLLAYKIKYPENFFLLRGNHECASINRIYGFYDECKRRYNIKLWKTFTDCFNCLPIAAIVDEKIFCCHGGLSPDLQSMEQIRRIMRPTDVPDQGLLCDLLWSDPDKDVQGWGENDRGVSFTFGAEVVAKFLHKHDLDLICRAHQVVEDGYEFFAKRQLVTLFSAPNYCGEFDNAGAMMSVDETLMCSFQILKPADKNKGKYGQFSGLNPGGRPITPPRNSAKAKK

B1: spinophilin_(417-583) (domain or fragment)
chain: not shown
  stoichiometry N: 1
